Reference: the supplement of paper PMC10065799, “High-throughput profiling of sequence recognition by tyrosine kinases and SH2 domains using bacterial peptide display” (eLife, 2023)

Each sequence was assayed on AncSZ (assay: phosphorylation enrichment, bacterial display (enrichment ratio); higher = better substrate or ligand; peptides without Tyr show the background).
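Further: 11-residue human phosphosite peptides and single-mutation variants displayed on the E. coli surface, counted by deep sequencing, each peptide's frequency after selection divided by its frequency in the unselected input library; frequency after pTyr selection over input frequency; kinase dosed for 20-30% of maximal phosphorylation in three min.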

Row | Sequence | phosphorylation enrichment
1 | SLIDGYYRLTE [JAK2_Y372_A377E] | 1.17
2 | FNVLQYVVPKV [EIF3A_Y382_E386K] | 0.832
3 | PANMVYSTVEI [SLAMF7_Y304_T302M] | 1.38
4 | GMTLSYLFREL [NDUFS8_Y74_P79L] | 0.888
5 | FGDTPYIPFRD [CDC14C_Y132] | 0.764
6 | YRGYSYDDIPD [TMEM230_Y112] | 0.973
7 | GYGGGYGGVLT [KRT19_Y65_A60G] | 0.556
8 | HTVEDYQAIVD [CCT7_Y263] | 1.73
9 | HSHTRYERNIE [F2_Y434_R431H] | 0.766
10 | ERIEFYELDKK [PMM2_Y145] | 1.05
11 | RELSWYRGRRP [HESX1_Y106] | 1.02
12 | ALKKPYSVLFK [RPF2_Y59_G60S_YF] | 0.815
13 | QMVGMYASFYM [AVPR2_Y124_S127F] | 1.35
14 | DVFVSYDCGKS [SORL1_Y139_Y141C_YF] | 0.969
15 | DEYLEYRRIVG [FAM221A_Y20] | 1.14
16 | RHLQEYQDLLN [GFAP_Y349] | 0.737
17 | LEGEEYRMSGE [KRT3_Y511] | 1.69

Row | Sequence | phosphorylation enrichment
18 | PSNTEYPGPHS [TP63_Y171_D170E] | 0.806
19 | IVVVPYEPPEV [TP53_Y220_S215I] | 1.01
20 | TFRPPYFHRNC [HGD_Y333_YF] | 0.733
21 | SLGKGYSVGGC [MC4R_Y35_D37V] | 0.724
22 | EPNSRYTFKLE [USH2A_Y3745_YF] | 0.808
23 | QELRRYLKSSV [MICA_Y194_G198S] | 0.543
24 | HLGNQYVNVMN [SLC3A1_Y461_R456H] | 0.905
25 | LSKDLYLISQM [LARP4_Y141] | 1.78
26 | ISHVAYRVLGK [TRRAP_Y892] | 0.634
27 | ISMAGYSIPEL [EDAR_Y406_T403M] | 0.647
28 | RPASVYTKRCS [CPT2_Y508] | 0.781
29 | EFENSCIFDIN [GAB1_Y83_Y83C] | 0.958
30 | HFGNNYTDVLQ [MACC1_Y803_R804T_YF] | 0.874
31 | PADQAYSWFQH [NDST1_Y711_R709Q_YF] | 1.7
32 | LFSINYLHFGD [KDM4C_Y201_E206D_YF] | 1.32
33 | KIITDYFVDMK [MPP4_Y566_V562I_YF] | 1.05

The sequences below were run against EPHB1 (UniProt P54762) in the same assay as above.
Sequence of EPHB1 (P54762 whole entry, looked up): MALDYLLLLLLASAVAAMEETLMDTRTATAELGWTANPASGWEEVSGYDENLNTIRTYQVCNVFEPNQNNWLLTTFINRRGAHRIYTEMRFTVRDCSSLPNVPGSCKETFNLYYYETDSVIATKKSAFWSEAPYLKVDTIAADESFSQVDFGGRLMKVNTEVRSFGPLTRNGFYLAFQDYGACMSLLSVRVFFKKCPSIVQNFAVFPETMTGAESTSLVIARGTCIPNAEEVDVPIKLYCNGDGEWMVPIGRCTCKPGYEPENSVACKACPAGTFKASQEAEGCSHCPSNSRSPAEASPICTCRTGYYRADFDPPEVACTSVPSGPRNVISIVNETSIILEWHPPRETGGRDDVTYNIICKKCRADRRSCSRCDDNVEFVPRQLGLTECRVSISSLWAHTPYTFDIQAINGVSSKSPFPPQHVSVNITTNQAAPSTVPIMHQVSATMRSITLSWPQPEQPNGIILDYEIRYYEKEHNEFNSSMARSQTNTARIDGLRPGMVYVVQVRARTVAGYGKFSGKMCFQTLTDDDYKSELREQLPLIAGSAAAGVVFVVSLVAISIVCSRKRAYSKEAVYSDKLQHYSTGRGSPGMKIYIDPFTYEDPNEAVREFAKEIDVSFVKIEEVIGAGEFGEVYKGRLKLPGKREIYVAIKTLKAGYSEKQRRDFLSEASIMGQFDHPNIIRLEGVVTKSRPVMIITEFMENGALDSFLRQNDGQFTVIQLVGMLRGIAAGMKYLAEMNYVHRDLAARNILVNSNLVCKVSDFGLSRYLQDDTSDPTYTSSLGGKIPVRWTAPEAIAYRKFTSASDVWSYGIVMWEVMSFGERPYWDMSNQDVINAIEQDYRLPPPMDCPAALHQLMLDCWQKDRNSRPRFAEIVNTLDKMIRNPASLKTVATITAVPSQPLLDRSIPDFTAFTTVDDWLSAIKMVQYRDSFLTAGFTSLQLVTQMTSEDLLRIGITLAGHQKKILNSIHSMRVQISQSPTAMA

Row | Sequence | phosphorylation enrichment
34 | SLIDGYYRLTE [JAK2_Y372_A377E] | 0.521
35 | FNVLQYVVPKV [EIF3A_Y382_E386K] | 1.09
36 | PANMVYSTVEI [SLAMF7_Y304_T302M] | 3.27
37 | GMTLSYLFREL [NDUFS8_Y74_P79L] | 0.514
38 | FGDTPYIPFRD [CDC14C_Y132] | 0.495
39 | YRGYSYDDIPD [TMEM230_Y112] | 0.483
40 | GYGGGYGGVLT [KRT19_Y65_A60G] | 0.359
41 | HTVEDYQAIVD [CCT7_Y263] | 0.882
42 | HSHTRYERNIE [F2_Y434_R431H] | 0.67
43 | ERIEFYELDKK [PMM2_Y145] | 0.652
44 | RELSWYRGRRP [HESX1_Y106] | 0.484
45 | ALKKPYSVLFK [RPF2_Y59_G60S_YF] | 0.411
46 | QMVGMYASFYM [AVPR2_Y124_S127F] | 2.49
47 | DVFVSYDCGKS [SORL1_Y139_Y141C_YF] | 0.611
48 | DEYLEYRRIVG [FAM221A_Y20] | 1.12
49 | RHLQEYQDLLN [GFAP_Y349] | 0.513
50 | LEGEEYRMSGE [KRT3_Y511] | 0.891

Row | Sequence | phosphorylation enrichment
51 | PSNTEYPGPHS [TP63_Y171_D170E] | 0.774
52 | IVVVPYEPPEV [TP53_Y220_S215I] | 0.636
53 | TFRPPYFHRNC [HGD_Y333_YF] | 0.522
54 | SLGKGYSVGGC [MC4R_Y35_D37V] | 0.523
55 | EPNSRYTFKLE [USH2A_Y3745_YF] | 0.479
56 | QELRRYLKSSV [MICA_Y194_G198S] | 0.322
57 | HLGNQYVNVMN [SLC3A1_Y461_R456H] | 0.565
58 | LSKDLYLISQM [LARP4_Y141] | 1.59
59 | ISHVAYRVLGK [TRRAP_Y892] | 0.31
60 | ISMAGYSIPEL [EDAR_Y406_T403M] | 0.395
61 | RPASVYTKRCS [CPT2_Y508] | 0.377
62 | EFENSCIFDIN [GAB1_Y83_Y83C] | 0.403
63 | HFGNNYTDVLQ [MACC1_Y803_R804T_YF] | 1.61
64 | PADQAYSWFQH [NDST1_Y711_R709Q_YF] | 1.3
65 | LFSINYLHFGD [KDM4C_Y201_E206D_YF] | 1.19
66 | KIITDYFVDMK [MPP4_Y566_V562I_YF] | 0.575

The sequences below were run against EPHB2 (UniProt P29323) in the same assay as above.
Sequence of EPHB2 (P29323 whole entry, looked up): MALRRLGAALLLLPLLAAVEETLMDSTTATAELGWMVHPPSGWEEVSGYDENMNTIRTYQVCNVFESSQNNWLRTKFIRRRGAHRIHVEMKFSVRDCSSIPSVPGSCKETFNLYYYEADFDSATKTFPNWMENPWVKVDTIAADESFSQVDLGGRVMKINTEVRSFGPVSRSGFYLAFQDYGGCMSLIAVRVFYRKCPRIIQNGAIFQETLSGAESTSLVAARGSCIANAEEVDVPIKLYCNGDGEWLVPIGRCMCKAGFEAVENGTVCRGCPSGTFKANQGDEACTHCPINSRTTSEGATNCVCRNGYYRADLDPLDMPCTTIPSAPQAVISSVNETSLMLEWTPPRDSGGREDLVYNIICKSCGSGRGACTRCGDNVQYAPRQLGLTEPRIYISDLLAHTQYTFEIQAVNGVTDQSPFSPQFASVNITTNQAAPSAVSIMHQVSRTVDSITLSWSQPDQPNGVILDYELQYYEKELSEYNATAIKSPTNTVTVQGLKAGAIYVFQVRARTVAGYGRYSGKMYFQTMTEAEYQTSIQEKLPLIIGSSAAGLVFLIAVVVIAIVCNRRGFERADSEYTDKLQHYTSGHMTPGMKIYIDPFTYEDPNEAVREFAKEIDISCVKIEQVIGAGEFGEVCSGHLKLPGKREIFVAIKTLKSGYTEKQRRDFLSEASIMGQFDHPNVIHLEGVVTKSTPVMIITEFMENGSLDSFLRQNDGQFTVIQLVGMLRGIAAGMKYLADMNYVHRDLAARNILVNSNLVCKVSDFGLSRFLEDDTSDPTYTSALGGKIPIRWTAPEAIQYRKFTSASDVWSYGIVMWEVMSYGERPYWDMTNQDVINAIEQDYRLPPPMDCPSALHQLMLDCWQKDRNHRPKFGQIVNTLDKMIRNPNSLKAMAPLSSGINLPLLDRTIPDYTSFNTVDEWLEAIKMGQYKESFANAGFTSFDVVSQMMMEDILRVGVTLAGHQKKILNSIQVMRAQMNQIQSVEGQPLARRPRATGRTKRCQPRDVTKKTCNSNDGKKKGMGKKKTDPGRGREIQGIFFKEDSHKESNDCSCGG

Row | Sequence | phosphorylation enrichment
67 | SLIDGYYRLTE [JAK2_Y372_A377E] | 0.531
68 | FNVLQYVVPKV [EIF3A_Y382_E386K] | 0.607
69 | PANMVYSTVEI [SLAMF7_Y304_T302M] | 3.32
70 | GMTLSYLFREL [NDUFS8_Y74_P79L] | 0.55
71 | FGDTPYIPFRD [CDC14C_Y132] | 0.458
72 | YRGYSYDDIPD [TMEM230_Y112] | 0.485
73 | GYGGGYGGVLT [KRT19_Y65_A60G] | 0.47
74 | HTVEDYQAIVD [CCT7_Y263] | 0.936
75 | HSHTRYERNIE [F2_Y434_R431H] | 0.387
76 | ERIEFYELDKK [PMM2_Y145] | 0.554
77 | RELSWYRGRRP [HESX1_Y106] | 0.683
78 | ALKKPYSVLFK [RPF2_Y59_G60S_YF] | 0.43
79 | QMVGMYASFYM [AVPR2_Y124_S127F] | 1.92
80 | DVFVSYDCGKS [SORL1_Y139_Y141C_YF] | 0.518
81 | DEYLEYRRIVG [FAM221A_Y20] | 0.615
82 | RHLQEYQDLLN [GFAP_Y349] | 0.45
83 | LEGEEYRMSGE [KRT3_Y511] | 0.598

Row | Sequence | phosphorylation enrichment
84 | PSNTEYPGPHS [TP63_Y171_D170E] | 0.671
85 | IVVVPYEPPEV [TP53_Y220_S215I] | 0.544
86 | TFRPPYFHRNC [HGD_Y333_YF] | 0.946
87 | SLGKGYSVGGC [MC4R_Y35_D37V] | 0.501
88 | EPNSRYTFKLE [USH2A_Y3745_YF] | 0.448
89 | QELRRYLKSSV [MICA_Y194_G198S] | 0.349
90 | HLGNQYVNVMN [SLC3A1_Y461_R456H] | 0.477
91 | LSKDLYLISQM [LARP4_Y141] | 1.29
92 | ISHVAYRVLGK [TRRAP_Y892] | 0.365
93 | ISMAGYSIPEL [EDAR_Y406_T403M] | 0.553
94 | RPASVYTKRCS [CPT2_Y508] | 0.603
95 | EFENSCIFDIN [GAB1_Y83_Y83C] | 0.431
96 | HFGNNYTDVLQ [MACC1_Y803_R804T_YF] | 0.471
97 | PADQAYSWFQH [NDST1_Y711_R709Q_YF] | 0.926
98 | LFSINYLHFGD [KDM4C_Y201_E206D_YF] | 0.538
99 | KIITDYFVDMK [MPP4_Y566_V562I_YF] | 0.566

What follows are sequences tested against FGFR1 (UniProt P11362) in the same assay as above.
Sequence of FGFR1 (P11362 whole entry, looked up): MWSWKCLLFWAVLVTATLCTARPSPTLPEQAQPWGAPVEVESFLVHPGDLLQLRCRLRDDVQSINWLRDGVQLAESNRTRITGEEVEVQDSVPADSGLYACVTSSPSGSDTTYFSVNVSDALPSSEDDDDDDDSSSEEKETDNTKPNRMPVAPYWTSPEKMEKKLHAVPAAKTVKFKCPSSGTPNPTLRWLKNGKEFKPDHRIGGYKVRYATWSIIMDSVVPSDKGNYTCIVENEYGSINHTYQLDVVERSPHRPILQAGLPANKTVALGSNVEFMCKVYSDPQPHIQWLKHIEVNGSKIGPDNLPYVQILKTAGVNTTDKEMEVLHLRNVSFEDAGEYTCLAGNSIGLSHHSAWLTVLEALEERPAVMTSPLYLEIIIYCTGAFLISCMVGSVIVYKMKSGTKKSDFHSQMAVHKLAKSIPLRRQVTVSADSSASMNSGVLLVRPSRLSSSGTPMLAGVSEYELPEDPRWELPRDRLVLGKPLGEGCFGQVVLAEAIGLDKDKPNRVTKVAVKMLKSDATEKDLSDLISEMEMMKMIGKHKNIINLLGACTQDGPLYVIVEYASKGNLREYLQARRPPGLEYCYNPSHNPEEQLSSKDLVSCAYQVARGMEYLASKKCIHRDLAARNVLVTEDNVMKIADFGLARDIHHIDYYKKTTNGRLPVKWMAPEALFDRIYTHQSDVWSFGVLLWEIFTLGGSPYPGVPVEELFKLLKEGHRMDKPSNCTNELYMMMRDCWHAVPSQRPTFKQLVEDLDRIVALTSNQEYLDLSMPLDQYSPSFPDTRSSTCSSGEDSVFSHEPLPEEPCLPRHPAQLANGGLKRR

Row | Sequence | phosphorylation enrichment
100 | SLIDGYYRLTE [JAK2_Y372_A377E] | 1.11
101 | FNVLQYVVPKV [EIF3A_Y382_E386K] | 1.1
102 | PANMVYSTVEI [SLAMF7_Y304_T302M] | 2.6
103 | GMTLSYLFREL [NDUFS8_Y74_P79L] | 0.53
104 | FGDTPYIPFRD [CDC14C_Y132] | 0.522
105 | YRGYSYDDIPD [TMEM230_Y112] | 0.531
106 | GYGGGYGGVLT [KRT19_Y65_A60G] | 0.468
107 | HTVEDYQAIVD [CCT7_Y263] | 0.818
108 | HSHTRYERNIE [F2_Y434_R431H] | 0.62
109 | ERIEFYELDKK [PMM2_Y145] | 0.395
110 | RELSWYRGRRP [HESX1_Y106] | 0.53
111 | ALKKPYSVLFK [RPF2_Y59_G60S_YF] | 0.556
112 | QMVGMYASFYM [AVPR2_Y124_S127F] | 0.45
113 | DVFVSYDCGKS [SORL1_Y139_Y141C_YF] | 0.485
114 | DEYLEYRRIVG [FAM221A_Y20] | 1.07
115 | RHLQEYQDLLN [GFAP_Y349] | 0.418
116 | LEGEEYRMSGE [KRT3_Y511] | 0.574

Row | Sequence | phosphorylation enrichment
117 | PSNTEYPGPHS [TP63_Y171_D170E] | 0.56
118 | IVVVPYEPPEV [TP53_Y220_S215I] | 0.511
119 | TFRPPYFHRNC [HGD_Y333_YF] | 0.617
120 | SLGKGYSVGGC [MC4R_Y35_D37V] | 0.456
121 | EPNSRYTFKLE [USH2A_Y3745_YF] | 0.379
122 | QELRRYLKSSV [MICA_Y194_G198S] | 0.44
123 | HLGNQYVNVMN [SLC3A1_Y461_R456H] | 0.735
124 | LSKDLYLISQM [LARP4_Y141] | 0.933
125 | ISHVAYRVLGK [TRRAP_Y892] | 0.423
126 | ISMAGYSIPEL [EDAR_Y406_T403M] | 0.494
127 | RPASVYTKRCS [CPT2_Y508] | 0.586
128 | EFENSCIFDIN [GAB1_Y83_Y83C] | 0.45
129 | HFGNNYTDVLQ [MACC1_Y803_R804T_YF] | 0.544
130 | PADQAYSWFQH [NDST1_Y711_R709Q_YF] | 5.17
131 | LFSINYLHFGD [KDM4C_Y201_E206D_YF] | 1.07
132 | KIITDYFVDMK [MPP4_Y566_V562I_YF] | 0.732
